Results from patent publication US20240059784A1 (Eli Lilly, published 2024).
Changes are numbered by the printed parent chain. In names and notes the source's numbering stands. Each block holds one binder with its values, some of them ahead of it.

What was measured:
human TfR (cell-bound) = molecular target: T1, human TfR (cell-bound) (human, UniProt P02786 1-760); assay: flow cytometry on hCMEC-D3 cells (endogenous human TfR), on ice, PE-labeled secondary
T1 construct: Endogenous receptor on hCMEC-D3 cells (stated); also called hTFR; human transferrin receptor on hCMEC-D3 cells
Description: (§1) Human endothelial line hCMEC-D3 (EMD Millipore SC066), endogenously expressing human TfR and MDCK cell line (ATCC CCL-34), engineered to express cynomolgus TfR were utilized to evaluate antibody/protein binding to cell-bound TfR. Cells were grown and maintained at submaximal confluence and detached from cultureware using Accutase cell detachment solution, washed, and allocated at 50000 cells per well for assessment of binding. Cells were treated with a viability stain then subsequently incubated with titrated concentrations of TfR binding proteins on ice. Cells were washed and binding of test antibodies or proteins was detected using a PE-labeled secondary reagent. Cells were then washed and read on the same day using a BioRad ZE5 cytometer. Analysis was performed post-acquisition in FlowJo, analyzing fluorescence of single, viable, non-debris events. EC50 values were derived by plotting geometric median PE intensity values across a given sample titration and fitting a sigmoidal (4PL) response curve in GraphPad Prism 8.3.0.

[1] = molecular target: T2, cynomolgus TfR (on MDCK cells) (cynomolgus, UniProt H9EXL1 1-760 (rhesus entry)); assay: flow cytometry on MDCK cells engineered to express cynomolgus TfR, on ice, PE-labeled secondary
T2 construct: whole, on cells; also called Cyno MDCK
Description: as §1

[2] = molecular target: T3, human TfR ECD (His-tagged) (human, UniProt P02786 89-760); assay: SPR (Biacore 8K), 37 C; TfR ECD amine-coupled to CM4 chip, TBP as analyte; multi-cycle kinetics, 2-state fit; n = 3
T3 construct: also called hTfR-ECD-6His; his-tagged hTfR-ECD
Description: (§2) Target human and cynomolgous TfR ECD's were immobilized on a CM4 chip (Cytiva P/N 29104989) using standard NHS-EDC amine coupling. The TfR binding proteins were prepared at a final concentration of 0.3, 0.1, 0.033, 0.01, 0.0033, 0.001, 0.00033, 0.0001 μM respectively by dilution of stock solution into running buffer.
(§3) Binding analysis was performed in a multi-cycle kinetics manner. Each analysis cycle consists of (1) injection of the lowest to highest concentration proteins over all Fc at 50 μL/min for 140 seconds followed by return to buffer flow for 400 seconds to monitor dissociation phase; (2) regeneration of chip surfaces with injection of 3M magnesium chloride, for 30 seconds at 100 μL/min over all cells; and (3) equilibration of chip surfaces with a 50 μL (30-sec) injection of HBS-EP+. Data were processed using standard double-referencing and fit to a 2-state binding model using Biacore 8K Evaluation software, to determine the association rate (kₒₙ, M⁻¹s⁻¹ units), dissociation rate (koff, s⁻¹ units), and Rₘₐₓ (RU units). The equilibrium dissociation constant (KD) is calculated from the relationship KD=koff/kₒₙ, and is in molar units.

cynomolgus TfR ECD = molecular target: T4, cynomolgus TfR ECD (cynomolgus); assay: as above
T4 construct: extracellular domain; amine-coupled in the 37 C assay; also called Cyno TfR; His-tagged cynomolgus TfR ECD
Description: as §2, §3

[3] = molecular target: T3, human TfR ECD (His-tagged); assay: SPR (Biacore 8K), 37 C; TfR ECD amine-coupled to CM4 chip, TBP as analyte; multi-cycle kinetics, 2-state fit; n = 3; conjugated to MAPT siRNA (dsRNA No. 39 in Table 11b)
Description: as §2, §3

EC50 (human TfR (cell-bound)): 764 nM
EC50 [1]: 453 nM
Kd [2]: 258 nM
Kd (cynomolgus TfR ECD): 448 nM
B1: TBP14-MAPT siRNA (dsRNA No. 38 in Table 11b) (antibody)
heavy: EVQLVESGGGLVKPGGSLRLSCVASGFTFSSYSMNWVRQAPGKGLEWVSSISSSSSYIYYADSVKGRFTISRDNAKNSLYLQMNSLRAEDTAVYYCARRHGYSNSDAFDNWGQGTLVTVSSASTKGPSVFPLAPCSRSTSESTAALGCLVKDYFPEPVTVSWNSGALTSGVHTFPAVLQSSGLYSLSSVVTVPSSSLGTKTYTCNVDHKPSNTKVDKRVESKYGPPCPPCPAPEAAGGPSVFLFPPKPKDTLMISRTPEVTCVVVDVSQEDPEVQFNWYVDGVEVHNAKTKPREEQFNSTYRVVSVLTVLHQDWLNGKEYKCKVSNKGLPSSIEKTISKAKGQPREPQVSTLPPSQEEMTKNQVSLMCLVYGFYPSDICVEWESNGQPENNYKTTPPVLDSDGSFFLYSVLTVDKSRWQEGNVFSCSVMHEALHNHYTQKSLSLSLG
light: DIQMTQSPSAMSASVGDRVTITCRASQGISHYLVWFQQKPGKVPKRLIYAASSLQSGVPSRFSGSGSGTEFTLTISSLQPEDFATYYCLQHNSYPWTFGQGTKVEIKRTVAAPSVFIFPPSDEQLKSGTASVVCLLNNFYPREAKVQWKVDNALQSGNSQESVTEQDSKDSTYSLSSTLTLSKADYEKHKVYACEVTHQGLSSPVTKSFNRGEC
chain: ESKYGPPCPPCPAPEAAGGPSVFLFPPKPKDTLMISRTPEVTCVVVDVSQEDPEVQFNWYVDGVEVHNAKTKPREEQFNSTYRVVSVLTVLHQDWLNGKEYKCKVSNKGLPSSIEKTISKAKGQPREPQVYTLPPSQGDMTKNQVQLTCLVKGFYPSDICVEWESNGQPENNYKTTPPVLDSDGSFFLASRLTVDKSRWQEGNVFSCSVMHEALHNHYTQKSLSLSLG
modifications: MAPT siRNA (dsRNA No. 38) conjugated through a linker at the engineered cysteine (A378C, EU numbering, by the name in Table 6b)
notes: Protein-siRNA conjugate of TBP14; also called TBP14-MAPT siRNA conjugate

EC50 (human TfR (cell-bound)): 75.6 nM
Kd [3]: 213 nM
EC50 [1]: 57.1 nM
Kd (cynomolgus TfR ECD): 199 nM
B2: TBP15-MAPT siRNA (dsRNA No. 39 in Table 11b) (antibody)
heavy: B1 heavy with S128C, C379A
light: B1 light
chain: B1 chain with C160A
modifications: MAPT siRNA (dsRNA No. 39) conjugated through a linker at the engineered cysteine (S124C, EU numbering, by the name in Table 6b)
notes: Protein-siRNA conjugate of TBP15
